To fix the notation:
B1: 133, 136: human NgR1 mutant, listed residues mutated to alanine (protein)
chain: CPGACVCYNEPKVTTSCPQQGLQAVPVGIPAASQRIFLHGNRISHVPAASFRACRNLTILWLHSNVLARIDAAAFTGLALLEQLDLSDNAQLRSVDPATFHGLGRLATLALDRCGLQELGPGLFRGLAALQYLYLQDNALQALPDDTFRDLGNLTHLFLHGNRISSVPERAFRGLHSLDRLLLHQNRVAHVHPHAFRDLGRLMTLYLFANNLSALPTEALAPLRALQYLRLNDNPWVCDCRARPLWAWLQKFRGSSSEVPCSLPQRLAGRDLKRLAANDLQGCAVATGPYHPIWTGRATDEEPLGLPKCCQPDAADKASVLEPGRPASAGNALKGRVPPGDSPPGNGSGPRHINDSPFGTLPGSAEPPLTAVRPEGSEPPGFPTSGPRRRPGCSRKNRTRSHCRLGQAGSGGGGTGDSEGSGALPSLTCSLTPLGLALVLWTVLGPC
B2: 202, 205, 227: human NgR1 mutant, listed residues mutated to alanine (protein)
chain: B1 chain with A107H, A110H, H176A, D179A, R201A
B3: 196, 199: human NgR1 mutant, listed residues mutated to alanine (protein)
chain: B1 chain with A107H, A110H, R170A, R173A
B4: 158, 160: human NgR1 mutant, listed residues mutated to alanine (protein)
chain: B1 chain with A107H, A110H, Y132A, Y134A
B5: 36, 38: human NgR1 mutant, listed residues mutated to alanine (protein)
chain: B1 chain with E10A, K12A, A107H, A110H
B6: 127, 151: human NgR1 mutant, listed residues mutated to alanine (protein)
chain: B1 chain with H101A, A107H, A110H, R125A
B7: 296, 297, 300: human NgR1 mutant, listed residues mutated to alanine (protein)
chain: B1 chain with A107H, A110H, R270A, D271A, R274A
B8: 267, 269: human NgR1 mutant, listed residues mutated to alanine (protein)
chain: B1 chain with A107H, A110H, R241A, R243A
B9: 114, 117: human NgR1 mutant, listed residues mutated to alanine (protein)
chain: B1 chain with D88A, Q91A, A107H, A110H
B10: 277, 279: human NgR1 mutant, listed residues mutated to alanine (protein)
chain: B1 chain with A107H, A110H, K251A, R253A
B11: 171, 172, 175, 176: human NgR1 mutant, listed residues mutated to alanine (protein)
chain: B1 chain with A107H, A110H, D145A, D146A, R149A, D150A
B12: 189, 191: human NgR1 mutant, listed residues mutated to alanine (protein)
chain: B1 chain with A107H, A110H, R163A, S165A
B13: 232, 234: human NgR1 mutant, listed residues mutated to alanine (protein)
chain: B1 chain with A107H, A110H, Y206A, F208A
B14: 202, 205, 250: human NgR1 mutant, listed residues mutated to alanine (protein)
chain: B1 chain with A107H, A110H, H176A, D179A, R224A
B15: 143, 144: human NgR1 mutant, listed residues mutated to alanine (protein)
chain: B1 chain with A107H, A110H, Q117A, E118A
B16: 189, 191, 284: human NgR1 mutant, listed residues mutated to alanine (protein)
chain: B1 chain with A107H, A110H, R163A, S165A, E258A
B17: 171, 172, 175, 176, 196, 199: human NgR1 mutant, listed residues mutated to alanine (protein)
chain: B1 chain with A107H, A110H, D145A, D146A, R149A, D150A, R170A, R173A
B18: D259N: human NgR1 mutant, asparagine substitution to mimic a human polymorphism (protein)
chain: B1 chain with A107H, A110H, D233N
B19: 127, 176: human NgR1 mutant, listed residues mutated to alanine (protein)
chain: B1 chain with H101A, A107H, A110H, D150A
B20: 82, 179: human NgR1 mutant, listed residues mutated to alanine (protein)
chain: B1 chain with N56A, A107H, A110H, N153A
B21: 202, 205: human NgR1 mutant, listed residues mutated to alanine (protein)
chain: B1 chain with A107H, A110H, H176A, D179A
B22: 292, 296, 297, 300: human NgR1 mutant, listed residues mutated to alanine (protein)
chain: B1 chain with A107H, A110H, R266A, R270A, D271A, R274A
B23: 189, 191, 237: human NgR1 mutant, listed residues mutated to alanine (protein)
chain: B1 chain with A107H, A110H, R163A, S165A, N211A
B24: 182, 186: human NgR1 mutant, listed residues mutated to alanine (protein)
chain: B1 chain with A107H, A110H, H156A, H160A
B25: 63, 65: human NgR1 mutant, listed residues mutated to alanine (protein)
chain: B1 chain with F37A, H39A, A107H, A110H

Numbering of substitutions follows the chain as printed. Names and notes keep the numbering of the source.

This assay concerns NgR ligands. In words: Binding of alanine substituted NgR mutants to NgR ligands, summary categories. Conditions: AP-Nogo66, AP-B4C, AP-B4C66, AP-Lingo-1, AP-OMgp and AP-MAG; compared to wild type NgR. The text has this:
To better define how multiple ligands bind to the NgR protein, we examined a series of Ala-substituted NgR for ligand binding activity. NgR mutagenesis was done using the Quick Change Multisite Directed Mutagenesis Kit (Stratagene catalog #200514). Human NgR1 was used as a template. Ala substitutions were generated for each of the charged residues predicted to be solvent accessible at the surface of the ligand binding domain of NgR (Barton, W. A., et al., Embo J. 22:3291-3302 (2003); He, X. L., et al., Neuron 38:177-185 (2003)). We generated mutants in which 1-8 surface residues localized within 5 A of one another were Ala-substituted. Because of the coiling nature of the LRR structure, as residues juxtaposed on the protein surface are commonly separated by approximately 25 residues in the primary structure. In addition to mutations in specific charged surface patches, other mutations were targeted to glycosylation sites and to regions predicted to be involved in ligand binding based on the NgR structure (Barton, W. A., et al., Embo J. 22:3291-3302 (2003); He, X. L., et al., Neuron 38:177-185 (2003)). In addition, a variant corresponding to a human polymorphism was examined (D259N). None of the mutations altered the Leu residues that define the LRR structure itself or the Cys residues critical in the amino and carboxyl terminal capping domains. The vast majority of such Ala surface substitution mutants were expressed as immunoreactive polypeptides with a molecular weight and an expression level indistinguishable from wild type NgR (FIG. 4C and data not shown).
This collection of 74 individual NgR mutants was interrogated for AP-Nogo-66, AP-Amino-Nogo-B4C, AP-MAG, AP-OMgp, and AP-Lingo-1 binding. AP-Nogo66, AP-MAG, AP-OMGP and AP-Lingo-1 constructs are described elsewhere (Fournier, A. E., et al., Nature 409:341-346 (2001); Liu, B. P., et al., Science 297:1190-1193 (2002); Mi, S., et al., Nat. Neurosci. 7:221-228 (2004); Wang, K. C., et al., Nature 417:941-944 (2002b)). The properties of the NgR mutants fell into one of three major categories (Table II and FIG. 5). A number of Ala substituted NgR polypeptides bound all of the ligands at wild type levels. […] In addition, a significant extent of the concave surface is dispensable for ligand binding.
Alanine substituted NgR mutants were tested for their binding to AP-Nogo66, AP-B4C, AP-B4C66, AP-Lingo-1, AP-OMgp and AP-MAG and they fall into three categories: (1) Mutants that lose binding to all NgR ligands. (2) Mutants that still maintain binding to all NgR ligands. […] The D259N mutant is an asparagine substitution to mimic a human polymorphism.
Regarding B1, the “ligand binding category of NgR mutant (Table II)” value (from here on “ligand binding category”) was “No binding”.
The result for B2 reads “Binding to all ligands”; that for B3, “Binding to all ligands”; that for B4, “No binding”.
On to B5, for which the “ligand binding category” value was “Binding to all ligands”.
Turning to B6, the “ligand binding category” value is given as “Binding to all ligands”.
In the case of B7, the “ligand binding category” value was “Binding to all ligands”.
B8: the “ligand binding category” value is listed as “Binding to all ligands”.
B9: the “ligand binding category” value is recorded as “Binding to all ligands”.
In the case of B10, the “ligand binding category” value was “Binding to all ligands”.
On to B11, for which the “ligand binding category” value is “Binding to all ligands”.
Take B12: the “ligand binding category” value was “Binding to all ligands”.
In the case of B13, the “ligand binding category” value is reported as “No binding”.
With B14, the “ligand binding category” value is recorded as “Binding to all ligands”.
The entry for B15 is “Binding to all ligands”.
On to B16, for which the “ligand binding category” value was “Binding to all ligands”.
The entry for B17 is “Binding to all ligands”.
The result for B18 reads “Binding to all ligands”; that for B19, “Binding to all ligands”; that for B20, “No binding”.
Take B21: the “ligand binding category” value was “Binding to all ligands”.
On to B22, for which the “ligand binding category” value is given as “Binding to all ligands”.
The entry for B23 is “Binding to all ligands”; for B24 it is “No binding”; for B25 it is “Binding to all ligands”.

These data come from US20090111753A1, “Nogo-A Polypeptide Fragments, Variant Nogo Receptor-1 Polypeptides, and Uses Thereof” (Yale University, priority 2004, published 2009).
